Here are results for 16 molecules from patent US20210061861A1, “D-PEPTIDIC COMPOUNDS FOR VEGF” (Reflexion Pharmaceuticals, Inc., priority 2019, published 2021).

The target of assay [1] is T1, VEGF-A binding to VEGFR1 receptor (Homo sapiens, UniProt P15692).
T1 sequence (P15692 214-315 limits assumed): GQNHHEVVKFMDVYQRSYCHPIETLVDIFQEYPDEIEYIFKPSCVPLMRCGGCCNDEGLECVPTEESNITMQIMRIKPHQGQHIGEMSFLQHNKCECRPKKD
Kind of assay: VEGF-A:VEGFR1 inhibition in Octet assay. Type of assay: biochemical. Particulars: for inhibition at 0.08 µM: read-out: % inhibition at 80 nM compound, D-peptidic compounds.
Description: Compounds of interest were assessed for inhibition of VEGF-A:VEGFR1 in an Octet assay.
The resulting dimeric compounds were assayed for VEGF-A inhibition activity in an octet assay.

Assay [2] relates to HUVEC cell proliferation. Particulars: read-out: IC50 for inhibition of cell proliferation in response to VEGF signaling; HUVEC, recombinant VEGF-A.
Excerpt: Here, HUVEC cell proliferation is increased in the presence of recombinant VEGF-A and antagonist compounds that block VEGF-A signaling reduce HUVEC cell proliferation.
Assay [3] concerns VEGF-A signaling through VEGFR2. In words: VEGFR2 luciferase reporter cell signaling assay (KDR/NFAT-RE HEK293). Type of assay: cell-based. Particulars: 150 pM VEGF-A; read-out: IC50, inhibition of VEGFR2 signaling (luciferase).
Description: Here VEGF-A activates VEGFR2 signaling in 293 cells resulting in luciferase expression as a functional readout. Inhibition of VEGF-A signaling in this system results in a loss of luciferase signal.
Measurement of VEGF cellular signaling was performed using the VEGF Bioassay (Promega). Briefly, HEK293 cells are engineered to express VEGFR-2 coupled to a luciferase response element (KDR/NFAT-RE HEK293). VEGF signaling through VEGFR-2 mediates expression of luciferase which can be quantified using bioluminescence. […] Following incubation Bio-Glo is added to wells according to the manufacturer's protocol and relative luminescence units (RLUs) were measured on a PerkinElmer 2300 Enspire Multimode plate reader. Data plotted are mean±standard deviation of triplicate measurements. IC50 values were derived from 3-parameter fits using Prism (GraphPad) and error reported are derived from fits.
The target of assay [4] is T2, VEGF-A (Homo sapiens, UniProt P15692).
T2 sequence (P15692 214-315): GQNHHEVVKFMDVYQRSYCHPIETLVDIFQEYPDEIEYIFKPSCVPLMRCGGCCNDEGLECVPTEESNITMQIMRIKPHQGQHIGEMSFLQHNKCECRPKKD
Particulars: 5 μM 978336 to saturation, then 5 μM 978336 plus 1 μM 11055.

The target of assay [5] is T3, L-VEGF-A (Homo sapiens, UniProt P15692).
T3 construct: Biotinylated VEGF-A(8-109) was immobilized on a biotin CAPture chip
In words: kd (s^-1).

For assay [6], the target named is T3, L-VEGF-A. Kind of assay: ka (10^6/M^-1s^-1).
In assay [7] the target is D-VEGF-A (8-109), synthetic mirror-image protein (Homo sapiens (Human)) (UniProt P15692). Kind of assay: competitive phage ELISA; L-peptidic compound on D-VEGF-A.
Assay [8] addresses VEGF-A (form not stated) (UniProt P15692). Kind of assay: Octet; inhibition of VEGF-A (10 nM) binding to VEGFR1.
The target in assay [9] is T4, VEGF-A (form not stated) (UniProt P15692-9 27-147, limits assumed).
T4 construct: also called biotinylated-VEGF-A; recombinant VEGF-A
T4 sequence (looked up): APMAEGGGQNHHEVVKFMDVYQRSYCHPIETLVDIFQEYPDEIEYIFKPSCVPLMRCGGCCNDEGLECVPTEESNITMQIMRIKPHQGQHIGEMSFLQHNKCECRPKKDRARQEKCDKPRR
In words: equilibrium VEGF-A/VEGFR1 blocking ELISA, 150 pM VEGF-A; soluble VEGFR1-Fc against coated VEGFR1-Fc.

For assay [10], the target named is T5, Biotinylated human VEGF-A121 (human, UniProt P15692-9 27-147, biotinylated).
T5 construct: Bought; also called VEGF-A121-biot
T5 sequence (looked up): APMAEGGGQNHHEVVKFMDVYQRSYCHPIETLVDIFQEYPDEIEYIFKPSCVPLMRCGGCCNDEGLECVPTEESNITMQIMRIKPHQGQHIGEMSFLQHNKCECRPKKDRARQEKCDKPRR
Kind of assay: equilibrium VEGF-A121/VEGFR1 blocking ELISA; soluble VEGFR1-Fc against coated VEGFR1-Fc.

For assay [11], the target named is D-VEGF-A (8-109), synthetic mirror-image protein (Homo sapiens (Human)) (UniProt P15692). In words: SPR; L-peptidic compound on D-VEGF-A.
Assay [12] concerns the target L-VEGF-A (8-109) (Homo sapiens (Human)) (UniProt P15692). In words: SPR on natural L-VEGF-A.
Assay [13] deals with VEGF-A (form not stated) (UniProt P15692). Kind of assay: equilibrium VEGF-A/VEGFR1 blocking ELISA, 150 pM VEGF-A.
The target in assay [14] is L-VEGF-A (8-109) (Homo sapiens (Human)) (UniProt P15692). Kind of assay: SPR per Examples 7, 8, 11 (method not named in Table 4).
The target is the same in assay [15]. Kind of assay: SPR, biotinylated VEGF-A(8-109) on a biotin CAPture chip, D-protein in solution, global single site kinetic fit.
The target of assay [16] is VEGF-A (form not stated) (UniProt P15692). In words: VEGF-A blocking ELISA on coated VEGFR1-Fc.
Assay [17] has as its target T5, Biotinylated human VEGF-A121. Kind of assay: non-equilibrium VEGF-A121 blocking ELISA.
The target of assay [18] is VEGF-A (form not stated) (UniProt P15692). Kind of assay: cell-based or functional assay.
The target in assay [19] is L-VEGF-A (8-109) (Homo sapiens (Human)) (UniProt P15692). In words: SPR.
Assay [20] concerns the target T5, Biotinylated human VEGF-A121. Kind of assay: equilibrium VEGF-A121/VEGFR1 blocking ELISA.
In assay [21] the target is VEGF-A (form not stated) (UniProt P15692). In words: Octet; inhibition of VEGF-A binding to VEGFR1.

Bridges are numbered along the chain shown (N, C = ends). Where no end group is shown, it is not given here. [ ]: non-standard residue; d: D form.

“[dP][dA][dL][dL][dK][dN][dA][dK][dE][dD][dA][dI][dA][dE][dL][dK][dK][dA]G[dI][dT][dE][dP][dH][dV][dI][dS][dF][dI][dN][dH][dA][dP][dY][dV][dS][dH][dV][dN]G[dL][dK][dN][dA][dI][dL]G[dR][dT][dV][dP] [1.1.1.2 (pa, pis), pallknakedaiaelkkaGitephvisfinhapyvshvnGlknailGrtvp]”: the inhibition at 0.08 µM in assay [1] is 18%.
Same read-out and setting: then “[dT][dI][dD][dQ][dW][dL][dL][dK][dN][dA][dK][dE][dD][dA][dI][dA][dE][dL][dK][dK][dA]G[dI][dT][dE][dP][dH][dV][dI][dS][dF][dI][dN][dH][dA][dP][dY][dV][dS][dH][dV][dN]G[dL][dN][dA][dI][dL]G[dR][dT][dV][dP] [1.1.1(c21a) (-kaha, Grtvp), tidqwllknakedaiaelkkaGitephvisfinhapyvshvnGlnailGrtvp]”, with 27%.
Turning to bevacizumab [reference compound], the figures for the IC50 in assay [2] and in assay [3] were 0.7 nM and 0.53 nM, respectively.
As for “tidqwllknakedaiaelkkaGitephvisfinhapyvshvnGlknailkaha [Compound 11055]”, the “binding of 978336 and 11055 together to VEGF-A” value in assay [4] is listed as “additive binding”.
Regarding “tidqwllknakedaiaelkkaGitephvisfinhapyvshvnGlknailkahac(acetyl)”, the “% inhibition at 80 nM compound” value in assay [1] (D-peptidic compounds) was found to be 68%.
On to “yhiqwvcknakedaiaelkkaGitephvisfinhapncshvnGlknailkaha ([dY][dH][dI][dQ][dW][dV][dC][dK][dN][dA][dK][dE][dD][dA][dI][dA][dE][dL][dK][dK][dA]G[dI][dT][dE][dP][dH][dV][dI][dS][dF][dI][dN][dH][dA][dP][dN][dC][dS][dH][dV][dN]G[dL][dK][dN][dA][dI][dL][dK][dA][dH][dA]-NH2; disulfide 7-38; not fully specified; printed as yhiqwvcknakedaiaelkkaGitephvisfinhapncshvnGlknailkaha) [Compound 979110]”, for which the “kd” value in [5] worked out at 0.0052 s⁻¹. Also, the “ka (10^6/M^-1s^-1)” value in assay [6] is listed as 2.14 10^6/M^-1s^-1.

B1: 1.1 (-kaha, GehGsp) (L-peptidic) (designed binder)
chain: TIDQWLLKNAKEDAIAELKKAGITEDHVFNFINHAPYVSHVNGLKNAILGEHGSP
B1 showed an IC50 in assay [7] of 14 nM.

B2: 1.1 (D-peptidic) (designed binder)
chain: [dT][dI][dD][dQ][dW][dL][dL][dK][dN][dA][dK][dE][dD][dA][dI][dA][dE][dL][dK][dK][dA]G[dI][dT][dE][dD][dH][dV][dF][dN][dF][dI][dN][dH][dA][dP][dY][dV][dS][dH][dV][dN]G[dL][dK][dN][dA][dI][dL][dK][dA][dH][dA]
With B2, the IC50 in [8] is 105 nM.

B3: 1.1.1(c21a) (-tidqw, -kaha, edwyl) (L-peptidic) (designed binder)
chain: LLKNAKEDAIAELKKAGITEPHVISFINHAPYVSHVNGLKNAILEDWYL
B3 came in with an IC50 in assay [7] of 0.86 to 1.1 nM.

B4: VEGFR1-Fc (Fc fusion, UniProt P17948 27-756, looked up)
chain: SKLKDPELSLKGTQHIMQAGQTLHLQCRGEAAHKWSLPEMVSKESERLSITKSACGRNGKQFCSTLTLNTAQANHTGFYSCKYLAVPTSKKKETESAIYIFISDTGRPFVEMYSEIPEIIHMTEGRELVIPCRVTSPNITVTLKKFPLDTLIPDGKRIIWDSRKGFIISNATYKEIGLLTCEATVNGHLYKTNYLTHRQTNTIIDVQISTPRPVKLLRGHTLVLNCTATTPLNTRVQMTWSYPDEKNKRASVRRRIDQSNSHANIFYSVLTIDKMQNKDKGLYTCRVRSGPSFKSVNTSVHIYDKAFITVKHRKQQVLETVAGKRSYRLSMKVKAFPSPEVVWLKDGLPATEKSARYLTRGYSLIIKDVTEEDAGNYTILLSIKQSNVFKNLTATLIVNVKPQIYEKAVSSFPDPALYPLGSRQILTCTAYGIPQPTIKWFWHPCNHNHSEARCDFCSNNEESFILDADSNMGNRIESITQRMAIIEGKNKMASTLVVADSRISGIYICIASNKVGTVGRNISFYITDVPNGFHVNLEKMPTEGEDLKLSCTVNKFLYRDVTWILLRTVNNRTMHYSISKQKMAITKEHSITLNLTIMNVSLQDSGTYACRARNVYTGEEILQKKEITIRDQEAPYLLRNLSDHTVAISSSTTLDCHANGVPEPQITWFKNNHKIQQEPGIILGPGSSTLFIERVTEEDEGVYHCKATNQKGSVESSAYLTVQGTSDKSN
notes: Bought; also called VEGFR1-Fc fusion; soluble decoy receptor VEGFR1-Fc; not shown: Fc part
Take B4: the values for the IC50 in [9] and in assay [10] were 0.22 nM and 0.23 nM, respectively.

B5: 1.1 (L-peptidic) (designed binder)
chain: TIDQWLLKNAKEDAIAELKKAGITEDHVFNFINHAPYVSHVNGLKNAILKAHA
In assay [11], B5 yielded a Kd of 140 nM. Moreover, the IC50 in [7] fell in the range of 100 to 105 nM.

B6: 1.1 (-kaha, adfl) (L-peptidic) (designed binder)
chain: TIDQWLLKNAKEDAIAELKKAGITEDHVFNFINHAPYVSHVNGLKNAILADFL
Regarding B6, the IC50 in assay [7] is 12 nM.

B7: 1.1 (-kaha, edyl) (L-peptidic) (designed binder)
chain: TIDQWLLKNAKEDAIAELKKAGITEDHVFNFINHAPYVSHVNGLKNAILEDYL
In [7], B7 came in with an IC50 of 5 nM.

B8: 1.1 (-tidqw) (L-peptidic) (designed binder)
chain: LLKNAKEDAIAELKKAGITEDHVFNFINHAPYVSHVNGLKNAILKAHA
Molecule B8 yielded a Kd in assay [11] of 450 nM.

B9: RFX-979110 (designed binder)
chain: [dY][dH][dI][dQ][dW][dV][dC][dK][dN][dA][dK][dE][dD][dA][dI][dA][dE][dL][dK][dK][dA]G[dI][dT][dE][dP][dH][dV][dI][dS][dF][dI][dN][dH][dA][dP][dN][dC][dS][dH][dV][dN]G[dL][dK][dN][dA][dI][dL][dK][dA][dH][dA]-NH2
modifications: disulfide 7-38; not fully specified
Molecule B9 returned a dissociation constant (Kd) in assay [12] of 3.6 nM. This molecule displayed an IC50 in [13] of 7 nM. Moreover, the Kd in [14] was found to be 2.3 nM. Further, in assay [15], the koff came to 0.0052 s⁻¹ and the kon is 2.14e+06 M⁻¹ s⁻¹. For the same molecule, in assay [16], the fold better IC50 than 11055 was found to be 14.8 fold. The fold improvement of IC50 over RFX-11055 in [17] stood at 15 fold. Besides, in [18], the HUVEC cell proliferation, apparent IC50 came to 131 nM; the HUVEC cell proliferation, potency against 11055 came out at 4 fold; the fold decrease in HUVEC cell proliferation, potency against bevacizumab came out at 185 fold. In assay [19], this molecule displayed a fold affinity improvement over RFX-11055 of 19 fold and a fold improvement of VEGF binding over 11055 of 10 fold. The molecule also showed an IC50 in [20] of 7.6 nM.

B10: 1.1.1.2 (pa, pis) (D-peptidic) (designed binder)
chain: [dP][dA][dL][dL][dK][dN][dA][dK][dE][dD][dA][dI][dA][dE][dL][dK][dK][dA]G[dI][dT][dE][dP][dH][dV][dI][dS][dF][dI][dN][dH][dA][dP][dY][dV][dS][dH][dV][dN]G[dL][dK][dN][dA][dI][dL]G[dR][dT][dV][dP]
As to B10, the % inhibition at 80 nM compound in assay [21] was found to be 18%.
